Laboratory results published in patent US20110311585A1.

Assays:
Test in all cases: cell-based or functional assay
[1] = target: HIV-1 envelope glycoprotein gp160, clone 022 from subject 108060, Q655R mutant (HIV-1)
[2] = target: HIV-1 envelope glycoprotein gp160, clone 005 from subject 108051, Q655R mutant (HIV-1)
[3] = target: HIV-1 envelope glycoprotein gp160, clone 024 from subject 108060, R655Q mutant (HIV-1)
[4] = target: HIV-1 envelope glycoprotein gp160, clone 005 from subject 108069, Q655R mutant (HIV-1)

| Substance | IC50, pseudovirus neutralization [1] [µg/mL] | fold increase in neutralization sensitivity against wild-type clone 022 [1] [fold] | IC50, pseudovirus neutralization [2] [µg/mL] | IC50, pseudovirus neutralization [3] [µg/mL] | IC50, pseudovirus neutralization [4] [µg/mL] | fold increase in neutralization sensitivity against the parental virus [4] [fold] |
| --- | --- | --- | --- | --- | --- | --- |
| CD4-IgG (from UniProt P01730 26-205) (Fc fusion) | 0.161 | > 125 | 5.21 | > 20 | 1.08 | > 20 |
| broadly neutralizing monoclonal antibody 2F5 | 0.093 | 30 to 35 | 0.343 | 3.43 | 0.052 | – |
| broadly neutralizing monoclonal antibody 4E10 | 0.156 | 30 to 35 | 1.31 | 6.55 | 0.044 | – |
| broadly neutralizing, CD4 blocking monoclonal antibody (MAb) b12 | > 20 | – | > 20 | > 20 | > 20 | – |
| enfuvirtide (peptide) | 0.004 | 17 | 0.036 | 0.13 | 0.011 | > 17 |
| monoclonal antibody 2G12 | > 20 | – | > 20 | > 20 | > 20 | – |
